Measured values taken from patent US20260098095A1 (Hoffmann-La Roche, published 2026).

Columns and labels:
[1] = molecular target: T1, HLA-A2/MAGE-A4 peptide MHC (pMHC) complex on cells (human); assay: cell-based or functional assay
[2] = molecular target: T1, HLA-A2/MAGE-A4 peptide MHC (pMHC) …; assay: cell-based or functional assay; remark: listed apart in the source
[3] = molecular target: T1, HLA-A2/MAGE-A4 peptide MHC (pMHC) …; assay: cell-based or functional assay; remark: listed apart in the source
pfkA = pfkA (human); assay: cell-based or functional assay
DPYSL3 = DPYSL3 (human); assay: cell-based or functional assay
gutQ = gutQ (human); assay: cell-based or functional assay
UBE2V2 = UBE2V2 (human); assay: cell-based or functional assay
DPYSL4 = DPYSL4 (human); assay: cell-based or functional assay
PIGG = PIGG (human); assay: cell-based or functional assay
CRMP1 = CRMP1 (human); assay: cell-based or functional assay
BNRF1 = BNRF1 (human); assay: cell-based or functional assay
EDC3 = EDC3 (human); assay: cell-based or functional assay
FBXO34 = FBXO34 (human); assay: cell-based or functional assay
SLC45A1 = SLC45A1 (human); assay: cell-based or functional assay
KEAP1 = KEAP1 (human); assay: cell-based or functional assay
UNC80 = UNC80 (human); assay: cell-based or functional assay
VPS13D = VPS13D (human); assay: cell-based or functional assay
MAGEB2 = MAGEB2 (human); assay: cell-based or functional assay
ARF1 = ARF1 (human); assay: cell-based or functional assay
ARF3 = ARF3 (human); assay: cell-based or functional assay
URB1 = URB1 (human); assay: cell-based or functional assay
GAPDHS = GAPDHS (human); assay: cell-based or functional assay
CCS = CCS (human); assay: cell-based or functional assay
KDM1A = KDM1A (human); assay: cell-based or functional assay
DYNC1H1 = DYNC1H1 (human); assay: cell-based or functional assay
MTOR = MTOR (human); assay: cell-based or functional assay
PKP1 = PKP1 (human); assay: cell-based or functional assay
[4] = molecular target: HLA-A2 with peptide MAGB6 on T2 cells (human); assay: cell-based or functional assay
[5] = molecular target: HLA-A2 with peptide MAGA10 on T2 cells (human); assay: cell-based or functional assay
T9A = T9A (human); assay: cell-based or functional assay
V10A = V10A (human); assay: cell-based or functional assay
G1A = G1A (human); assay: cell-based or functional assay
V2A = V2A (human); assay: cell-based or functional assay
Y3A = Y3A (human); assay: cell-based or functional assay
D4A = D4A (human); assay: cell-based or functional assay
G5A = G5A (human); assay: cell-based or functional assay
R6A = R6A (human); assay: cell-based or functional assay
E7A = E7A (human); assay: cell-based or functional assay
H8A = H8A (human); assay: cell-based or functional assay
[6] = molecular target: T1, HLA-A2/MAGE-A4 peptide MHC (pMHC) …; assay: cell-based or functional assay; remark: listed apart in the source
[7] = molecular target: T1, HLA-A2/MAGE-A4 peptide MHC (pMHC) …; assay: cell-based or functional assay; remark: listed apart in the source
[8] = molecular target: T1, HLA-A2/MAGE-A4 peptide MHC (pMHC) …; assay: cell-based or functional assay; remark: listed apart in the source
[9] = molecular target: T2, HLA-A2/MAGE-A4p230-239 complex (human); assay: SPR Biacore T200, antibody captured by anti-human Fc, pMHC complex as analyte, 25 C, 1:1 Langmuir fit
T2 construct: also called HLA-A2/MAGEp230-239
Description: The dissociation phase was monitored for 240 s and triggered by switching from the sample solution to HBS-EP+. The chip surface was regenerated after every cycle using an injection of 3M MgCl₂ at 10 μl/min for 30 sec. Bulk refractive index differences were corrected for by subtracting the response obtained on the reference flow cell which contains the anti-human Fc antibody, but without HLA-A2/MAGE-A4 antibody captured on it. The affinity constants were derived from the kinetic rate constants by fitting to a 1:1 Langmuir binding using the BIAeval software (GE Healthcare). The measurement was performed in triplicate with independent dilution series.

B1: Molecule F (bispecific antibody, V domains shown)
VH 1: not shown
VL 1: SSELTQDPAVSVALGQTVRITCQGDSLRSYYASWYQQKPGQAPVLVIYGKNNRPSGIPDRFSGSSSSNTASLTITGAQAEDEADYYCNSRMSSRYHHDVFGGGTKLTVL
VH 2: not shown
VL 2: QAVVTQEPSLTVSPGGTVTLTCGSSTGAVTTSNYANWVQEKPGQAFRGLIGGTNKRAPGTPARFSGSLLGGKAALTLSGAQPEDEAEYYCALWYSNLWVFGGGTKLTVL
EC50 [pM] 24 h, T-cell mediated lysis of MAGE-A4 peptide pulsed T2 cells [1]: 1.5 pM
EC50 [pM], activation of Jurkat-NFAT reporter cells (luminescence, 6 h) with MAGE-A4 peptide pulsed T2 cells [2]: 41.6 pM
EC50 [pM], T-cell mediated lysis of A-375 cells, 24 h [3]: 822 pM
EC50 [pM], T-cell mediated lysis of C-33A cells, 24 h [3]: 186 pM
EC50 [pM], T-cell mediated lysis of IM-9 cells, 24 h [3]: 8.3 pM
EC50 [pM], T-cell mediated lysis of NCI-H1755 cells, 24 h [3]: 2.7 pM
EC50 [pM], T-cell mediated lysis of NCI-H2023 cells, 24 h [3]: 890 pM
EC50 [pM], T-cell mediated lysis of U266B1 cells, 24 h [3]: 352 pM
EC50 [pM], T-cell mediated lysis of UMUC-3 cells, 24 h [3]: 429 pM
% of MAGE-A4 signal, Jurkat-NFAT (pfkA): 0.8%
% of MAGE-A4 signal, Jurkat-NFAT; grey (>2%) (DPYSL3): 61.9%
% of MAGE-A4 signal, Jurkat-NFAT (gutQ): 0.73%
% of MAGE-A4 signal, Jurkat-NFAT (UBE2V2): 0.71%
% of MAGE-A4 signal, Jurkat-NFAT; grey (>2%) (DPYSL4): 14.2%
% of MAGE-A4 signal, Jurkat-NFAT (PIGG): 0.78%
% of MAGE-A4 signal, Jurkat-NFAT; grey (>2%) (CRMP1): 6.54%
% of MAGE-A4 signal, Jurkat-NFAT (BNRF1): 0.55%
% of MAGE-A4 signal, Jurkat-NFAT (EDC3): 0.89%
% of MAGE-A4 signal, Jurkat-NFAT (FBXO34): 0.78%
% of MAGE-A4 signal, Jurkat-NFAT (SLC45A1): 0.68%
% of MAGE-A4 signal, Jurkat-NFAT (KEAP1): 0.66%
% of MAGE-A4 signal, Jurkat-NFAT (UNC80): 1.05%
% of MAGE-A4 signal, Jurkat-NFAT; grey (>2%) (VPS13D): 172%
% of MAGE-A4 signal, Jurkat-NFAT; grey (>2%) (MAGEB2): 126%
% of MAGE-A4 signal, Jurkat-NFAT (ARF1): 1.58%
% of MAGE-A4 signal, Jurkat-NFAT (ARF3): 1.53%
% of MAGE-A4 signal, Jurkat-NFAT; grey (>2%) (URB1): 78.4%
% of MAGE-A4 signal, Jurkat-NFAT (GAPDHS): 1.01%
% of MAGE-A4 signal, Jurkat-NFAT; grey (>2%) (CCS): 76.8%
% of MAGE-A4 signal, Jurkat-NFAT (KDM1A): 0.9%
% of MAGE-A4 signal, Jurkat-NFAT (DYNC1H1): 0.64%
% of MAGE-A4 signal, Jurkat-NFAT (MTOR): 0.42%
% of MAGE-A4 signal, Jurkat-NFAT (PKP1): 0.64%
% of MAGE-A4 signal, Jurkat-NFAT; grey (>2%) [4]: 130%
% of MAGE-A4 signal, Jurkat-NFAT; grey (>2%) [5]: 145%
EC50, Jurkat-NFAT activation (T9A): 0.45 nM
EC50, Jurkat-NFAT activation (V10A): 0.791 nM
EC50, Jurkat-NFAT activation (G1A): 0.259 nM
EC50, Jurkat-NFAT activation (V2A): 6.57 nM
EC50, Jurkat-NFAT activation (Y3A): 15 nM
EC50, Jurkat-NFAT activation (D4A): 9.95 nM
EC50, Jurkat-NFAT activation (G5A): 1.09 nM
EC50, Jurkat-NFAT activation (R6A): 0.196 nM
EC50, Jurkat-NFAT activation (E7A): 0.332 nM
EC50, Jurkat-NFAT activation (H8A): 0.0813 nM
EC50, Jurkat-NFAT activation [6]: 0.0954 nM

B2: Molecule B (bispecific antibody, V domains shown)
VH 1: YPQLVESGGGLVKPGGSLRLSCAARYPFTRLDMSWVRQAPGKGLEWVGSISPKGGSTYYNDNVLGRFTISRDNSKNTLYLQMNSLRAEDTAVYYCARDWGFFDNWGQGTLVTVSS
VL 1: AIQMTQSPSSLSASVGDRVTITCRASQSISNYLAWYQQKPGKAPKLLIYNASHPEYDVPSRFSGSGSGTDFTLTISSLQPEDFATYYCQQYSSHPYTFGQGTKLEIK
VH 2: not shown
VL 2: QAVVTQEPSLTVSPGGTVTLTCGSSTGAVTTSNYANWVQEKPGQAFRGLIGGTNKRAPGTPARFSGSLLGGKAALTLSGAQPEDEAEYYCALWYSNLWVFGGGTKLTVL
EC50 [pM] 24 h, T-cell mediated lysis of MAGE-A4 peptide pulsed T2 cells [1]: 72.8 pM
EC50 [pM], activation of Jurkat-NFAT reporter cells (luminescence, 6 h) with MAGE-A4 peptide pulsed T2 cells [2]: ~8310 pM
EC50 [pM], T-cell mediated lysis of IM-9 cells, 24 h [3]: 1080 pM
EC50 [pM], T-cell mediated lysis of NCI-H1755 cells, 24 h [3]: 168 pM
% of MAGE-A4 signal, Jurkat-NFAT (pfkA): 1.1%
% of MAGE-A4 signal, Jurkat-NFAT; grey (>2%) (DPYSL3): 112%
% of MAGE-A4 signal, Jurkat-NFAT (gutQ): 1.11%
% of MAGE-A4 signal, Jurkat-NFAT (UBE2V2): 1.37%
% of MAGE-A4 signal, Jurkat-NFAT; grey (>2%) (DPYSL4): 53.1%
% of MAGE-A4 signal, Jurkat-NFAT (PIGG): 1.46%
% of MAGE-A4 signal, Jurkat-NFAT; grey (>2%) (CRMP1): 67.5%
% of MAGE-A4 signal, Jurkat-NFAT (BNRF1): 1.05%
% of MAGE-A4 signal, Jurkat-NFAT (EDC3): 0.63%
% of MAGE-A4 signal, Jurkat-NFAT (FBXO34): 0.91%
% of MAGE-A4 signal, Jurkat-NFAT (SLC45A1): 1.22%
% of MAGE-A4 signal, Jurkat-NFAT (KEAP1): 1.07%
% of MAGE-A4 signal, Jurkat-NFAT (UNC80): 0.98%
% of MAGE-A4 signal, Jurkat-NFAT (VPS13D): 1.8%
% of MAGE-A4 signal, Jurkat-NFAT (MAGEB2): 1.58%
% of MAGE-A4 signal, Jurkat-NFAT (ARF1): 1.14%
% of MAGE-A4 signal, Jurkat-NFAT (ARF3): 1.59%
% of MAGE-A4 signal, Jurkat-NFAT; grey (>2%) (URB1): 67.9%
% of MAGE-A4 signal, Jurkat-NFAT (GAPDHS): 1.37%
% of MAGE-A4 signal, Jurkat-NFAT; grey (>2%) (CCS): 10.8%
% of MAGE-A4 signal, Jurkat-NFAT (KDM1A): 1.04%
% of MAGE-A4 signal, Jurkat-NFAT (DYNC1H1): 0.85%
% of MAGE-A4 signal, Jurkat-NFAT (MTOR): 0.59%
% of MAGE-A4 signal, Jurkat-NFAT (PKP1): 0.94%
% of MAGE-A4 signal, Jurkat-NFAT; grey (>2%) [4]: 57.9%
% of MAGE-A4 signal, Jurkat-NFAT; grey (>2%) [5]: 10.6%
EC50, Jurkat-NFAT activation (T9A): 0.426 nM
EC50, Jurkat-NFAT activation (V10A): 1.01 nM
EC50, Jurkat-NFAT activation (G1A): 141 nM
EC50, Jurkat-NFAT activation (V2A): 0.258 nM
EC50, Jurkat-NFAT activation (Y3A): 27.9 nM
EC50, Jurkat-NFAT activation (D4A): 191 nM
EC50, Jurkat-NFAT activation (G5A): 0.181 nM
EC50, Jurkat-NFAT activation (R6A): 45.5 nM
EC50, Jurkat-NFAT activation (E7A): 3.48 nM
EC50, Jurkat-NFAT activation (H8A): 0.717 nM
EC50, Jurkat-NFAT activation [6]: 0.189 nM

B3: Molecule R (bispecific antibody, human IgG1, kappa, L234A L235A)
heavy 1: not shown
heavy 2: AQLVESGGGLVQPGGSLRLSCAASAYFSFKAMSWVRQAPGKGLEWVGSISPSGGSTYYNDNVLGRFTISRDNSKNTLYLQMNSLRAEDTAVYYCAKDVGFFDEWGQGTLVTVSSASTKGPSVFPLAPSSKSTSGGTAALGCLVEDYFPEPVTVSWNSGALTSGVHTFPAVLQSSGLYSLSSVVTVPSSSLGTQTYICNVNHKPSNTKVDEKVEPKSCDKTHTCPPCPAPEAAGGPSVFLFPPKPKDTLMISRTPEVTCVVVDVSHEDPEVKFNWYVDGVEVHNAKTKPREEQYNSTYRVVSVLTVLHQDWLNGKEYKCKVSNKALGAPIEKTISKAKGQPREPQVCTLPPSRDELTKNQVSLSCAVKGFYPSDIAVEWESNGQPENNYKTTPPVLDSDGSFFLVSKLTVDKSRWQQGNVFSCSVMHEALHNHYTQKSLSLSP
light 1: DIQMTQSPSSLSASVGDRVTITCRASQSISSYLAWYQQKPGKAPKLLIYDASIRDIGVPSRFSGSGSGTDFTLTISSLQPEDFATYYCQQYSSYPYTFGQGTKLEIKRTVAAPSVFIFPPSDRKLKSGTASVVCLLNNFYPREAKVQWKVDNALQSGNSQESVTEQDSKDSTYSLSSTLTLSKADYEKHKVYACEVTHQGLSSPVTKSFNRGEC
light 2: EVQLVESGGGLVQPGGSLRLSCAASGYSFTGYTMNWVRQAPGKGLEWVALINPYKGVSTYNQKFKDRFTISVDKSKNTAYLQMNSLRAEDTAVYYCARSGYYGDSDWYFDVWGQGTLVTVSSASVAAPSVFIFPPSDEQLKSGTASVVCLLNNFYPREAKVQWKVDNALQSGNSQESVTEQDSKDSTYSLSSTLTLSKADYEKHKVYACEVTHQGLSSPVTKSFNRGEC
EC50 (nM), T-cell mediated lysis of A375 cells, 48 h [7]: 1.47 nM
EC50 (nM), T-cell mediated lysis of NCI-H2023 cells, 48 h [7]: 1.06 nM
EC50 (nM), T-cell mediated lysis of UMUC-3 cells, 48 h [7]: 0.57 nM
EC50 [pM], T-cell mediated lysis of A375 HLA-A2 overexpressing cells, 24 h [8]: 0.08 pM
EC50 [pM], T-cell mediated lysis of A375 cells, 24 h [8]: 0.6 pM
Kd [9]: 13.1 nM
koff [9]: 0.0436 s⁻¹
kon [9]: 3.33e+06 M⁻¹ s⁻¹
